Measured values published in PMC10420310, “The Complex Proteolipidic Behavior of the SARS-CoV-2 Envelope Protein Channel: Weak Selectivity and Heterogeneous Oligomerization” (International Journal of Molecular Sciences, 2023).
Several values for one entry are separate records, joined by “and”; a condition that tells them apart may be missing. Equal values may be shown once.

What was measured:
[1] = biological target: full-length SARS-2 E protein (E-FL) (SARS-CoV-2) (UniProt P0DTC4); assay: AUC; sedimentation velocity, E-FL at DPR 125 in 5 mM C14SB micelles, 50 mM Tris-HCl pH 7.3, 100 mM NaCl, 29.4% D2O, 20 °C, 50,000 rpm
[2] = biological target: truncated SARS-2 E protein corresponding to residues 8–65 with N-terminal 6-His tag (6H-E-TR) (SARS-CoV-2) (UniProt P0DTC4); assay: AUC; sedimentation velocity, His-E-TR at DPR 25 in 5 mM C14SB micelles, 50 mM Tris-HCl pH 7.3, 100 mM NaCl, 29.4% D2O, 20 °C, 50,000 rpm
[3] = biological target: truncated SARS-2 E protein corresponding to residues 8–65 with N-terminal 6-His tag (6H-E-TR) (SARS-CoV-2) (UniProt P0DTC4); assay: AUC; sedimentation velocity, His-E-TR at DPR 70 in 5 mM C14SB micelles, 50 mM Tris-HCl pH 7.3, 100 mM NaCl, 29.4% D2O, 20 °C, 50,000 rpm

Substance | stoichiometry N [1] | stoichiometry N [2] | stoichiometry N [3]
full-length SARS-2 E protein (E-FL) (from UniProt P0DTC4 1-75) (natural protein) | 2 and 4.6 |  | 
truncated SARS-2 E protein corresponding to residues 8–65 with N-terminal 6-His tag (6H-E-TR) (from UniProt P0DTC4 8-65) (domain or fragment) |  | 3 | 2.56
